The target of this experiment is T1, Polycystin 2 (PC2), human, endogenous in PTEC (human (endogenous in PTEC), UniProt Q13563 1-968).
T1 construct: Polycystin 2 (PC2), encoded by the PKD2 gene, human, endogenous in PTEC; no construct, no residues stated; Endogenous protein, immunoprecipitated with anti-Polycystin-2 antibodies (Santa Cruz)
T1 sequence (looked up): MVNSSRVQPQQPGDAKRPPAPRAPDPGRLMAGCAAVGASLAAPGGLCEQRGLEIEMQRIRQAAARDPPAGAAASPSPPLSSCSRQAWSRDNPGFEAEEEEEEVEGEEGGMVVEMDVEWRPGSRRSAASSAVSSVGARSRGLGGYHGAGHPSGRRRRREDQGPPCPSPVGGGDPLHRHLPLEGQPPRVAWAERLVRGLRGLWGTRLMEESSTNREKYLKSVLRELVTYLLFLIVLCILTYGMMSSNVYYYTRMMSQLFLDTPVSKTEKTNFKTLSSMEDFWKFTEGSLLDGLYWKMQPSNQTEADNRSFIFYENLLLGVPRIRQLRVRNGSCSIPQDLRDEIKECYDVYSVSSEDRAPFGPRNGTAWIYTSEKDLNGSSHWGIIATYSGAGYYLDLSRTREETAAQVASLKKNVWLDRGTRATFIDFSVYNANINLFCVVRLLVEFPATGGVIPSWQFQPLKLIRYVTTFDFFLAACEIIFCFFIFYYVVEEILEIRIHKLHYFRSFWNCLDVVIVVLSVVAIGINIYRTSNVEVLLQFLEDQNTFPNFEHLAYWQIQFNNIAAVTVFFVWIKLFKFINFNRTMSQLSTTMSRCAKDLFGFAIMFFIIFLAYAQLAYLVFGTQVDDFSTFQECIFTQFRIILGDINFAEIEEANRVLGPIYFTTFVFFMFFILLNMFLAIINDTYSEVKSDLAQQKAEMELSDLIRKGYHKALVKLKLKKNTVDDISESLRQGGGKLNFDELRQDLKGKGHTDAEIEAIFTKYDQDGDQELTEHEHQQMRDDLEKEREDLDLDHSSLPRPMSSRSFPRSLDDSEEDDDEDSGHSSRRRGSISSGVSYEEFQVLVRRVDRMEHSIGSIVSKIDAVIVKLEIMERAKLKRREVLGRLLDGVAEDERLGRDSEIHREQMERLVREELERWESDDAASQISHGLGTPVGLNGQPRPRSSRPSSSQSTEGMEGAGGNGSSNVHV
Nature of the experiment: co-IP; PTEC wt and PC1KD (PKD1 knocked down) lysates (1% Triton X-100, 150 mM NaCl, 25 mM Hepes pH 7.4); anti-PC2 antibodies coupled to protein A-Sepharose, overnight; immunoblot with anti-CaSR and anti-PC2. Particulars: partners not purified.

B1: Calcium Sensing Receptor (CaSR), human, endogenous in PTEC (receptor, human (endogenous in PTEC), UniProt P41180 20-1078, looked up)
chain: YGPDQRAQKKGDIILGGLFPIHFGVAAKDQDLKSRPESVECIRYNFRGFRWLQAMIFAIEEINSSPALLPNLTLGYRIFDTCNTVSKALEATLSFVAQNKIDSLNLDEFCNCSEHIPSTIAVVGATGSGVSTAVANLLGLFYIPQVSYASSSRLLSNKNQFKSFLRTIPNDEHQATAMADIIEYFRWNWVGTIAADDDYGRPGIEKFREEAEERDICIDFSELISQYSDEEEIQHVVEVIQNSTAKVIVVFSSGPDLEPLIKEIVRRNITGKIWLASEAWASSSLIAMPQYFHVVGGTIGFALKAGQIPGFREFLKKVHPRKSVHNGFAKEFWEETFNCHLQEGAKGPLPVDTFLRGHEESGDRFSNSSTAFRPLCTGDENISSVETPYIDYTHLRISYNVYLAVYSIAHALQDIYTCLPGRGLFTNGSCADIKKVEAWQVLKHLRHLNFTNNMGEQVTFDECGDLVGNYSIINWHLSPEDGSIVFKEVGYYNVYAKKGERLFINEEKILWSGFSREVPFSNCSRDCLAGTRKGIIEGEPTCCFECVECPDGEYSDETDASACNKCPDDFWSNENHTSCIAKEIEFLSWTEPFGIALTLFAVLGIFLTAFVLGVFIKFRNTPIVKATNRELSYLLLFSLLCCFSSSLFFIGEPQDWTCRLRQPAFGISFVLCISCILVKTNRVLLVFEAKIPTSFHRKWWGLNLQFLLVFLCTFMQIVICVIWLYTAPPSSYRNQELEDEIIFITCHEGSLMALGFLIGYTCLLAAICFFFAFKSRKLPENFNEAKFITFSMLIFFIVWISFIPAYASTYGKFVSAVEVIAILAASFGLLACIFFNKIYIILFKPSRNTIEEVRCSTAAHAFKVAARATLRRSNVSRKRSSSLGGSTGSTPSSSISSKSNSEDPFPQPERQKQQQPLALTQQEQQQQPLTLPQQQRSQQQPRCKQKVIFGSGTVTFSLSFDEPQKNAMAHRNSTHQNSLEAQKSSDTLTRHEPLLPLQCGETDLDLTVQETGLQGPVGGDQRPEVEDPEELSPALVVSSSQSFVISGGGSTVTENVVNS
notes: Calcium sensing receptor (CaSR), human, endogenous in PTEC; no construct, no residues stated; Endogenous protein, detected with a monoclonal anti-CaSR antibody (Sigma C0493); also called extracellular calcium sensing receptor
Take B1: the “amount of CaSR immunoprecipitated with PC2 in PC1KD cells relative to wt (ratio CaSR/PC2)” value is 1.34 fold (wt = 1).

Values taken from paper PMC12732451, “Functional Coupling of Calcium-Sensing Receptor and Polycystin-2 in Renal Epithelial Cells: Physiological Role and Potential Therapeutic Target in Polycystic Kidney Disease” (International Journal of Molecular Sciences, 2025).
